Results reported in paper PMC7602980 (Biomolecules, 2020).

B1: Cx43CL_(136-158) M147T peptide (peptide)
peptide: KYGIEEHGKVKTRGGLLRTYIIS
notes: connexin43 (Cx43) cytoplasmic loop, residues K136-S158, with the ODDD mutation M147T; ODDD-linked mutation that occurs in patients; No species is named for the synthetic peptides; source: synthetic peptide (LifeTein, 95% purity)
B2: Cx43CL_(136-158) T154A peptide (peptide)
peptide: KYGIEEHGKVKMRGGLLRAYIIS
notes: connexin43 (Cx43) cytoplasmic loop, residues K136-S158, with the ODDD mutation T154A; ODDD-linked mutation that occurs in patients; No species is named for the synthetic peptides; source: synthetic peptide (LifeTein, 95% purity)
B3: Cx43CL_(136-158) R148Q peptide (peptide)
peptide: KYGIEEHGKVKMQGGLLRTYIIS
notes: connexin43 (Cx43) cytoplasmic loop, residues K136-S158, with the ODDD mutation R148Q; ODDD-linked mutation that occurs in patients; No species is named for the synthetic peptides; source: synthetic peptide (LifeTein, 95% purity)

Biological target: T1, calmodulin (UniProt P0DP23 1-149)
T1 construct: calmodulin (CaM); Used 15N-labeled or unlabeled; also called CaM; source: expressed (cloned in pAED4 vector)
Test: NMR titration; 15N-HSQC; 15N-labeled CaM at a constant concentration (30–100 μM), unlabeled ligand added (7.5 to 400 μM); KD by nonlinear fitting of chemical shift changes, average of at least six curves
Conditions: both partners purified

| binding result | Binder |
| --- | --- |
| binds | B1 |
| binds | B2 |
| binds | B3 |
